Experimental data as given in article PMC10439073.

What was measured:
Assay in all cases: SPR
US-bevacizumab (human) = target: US-bevacizumab (human)
BAT1706 (human) = target: BAT1706 (human)
EU-bevacizumab (human) = target: EU-bevacizumab (human)

Substance: FcγRIIIa-158F (from UniProt P08637 17-208) (receptor)
- Kd (US-bevacizumab (human)): 983 nM
- Kd (BAT1706 (human)): 769 nM
- Kd (EU-bevacizumab (human)): 951 nM
